# From patent US20140227262A1, “PD-1 Antagonists and Methods for Treating Infectious Disease” (AMPLIMMUNE, INC., priority 2008, published 2014)
# Key:
# [1] = target: T1, recombinant human PD-1/Fc (Homo sapiens, UniProt Q15116); assay: PD-1 binding ELISA, human B7-DC-Ig; details: four different lots, FIG. 1A
# T1 construct: Fc (immunoglobulin Fc fusion partner); purchased R&D Systems
# Method: (§1) 96-well ELISA plates were coated with 100 μL 0.75 ug/mL recombinant human PD-1/Fc (R&D Systems) diluted in BupH Carbonate/Bicarbonate pH 9.4 buffer (Pierce) for 2 hours and then blocked with BSA solution (Jackson ImmunoResearch) for 90-120 minutes. […] Absorbance at 450 nm was read using a plate reader (Molecular Devices) and data were analyzed in SoftMax using a 4-parameter logistic fit.
# [2] = test system: CT26 colorectal tumor cells; assay: Established CT26 colorectal tumor model; details: 100 mg/kg cyclophosphamide on day 10, alone
# Text: Balb/C mice at age of 9 to 11 weeks were implanted subcutaneously with 1.0×10^5 CT26 colorectal tumor cells.
# [3] = target: T2, recombinant mouse PD-1/Fc (Mus musculus, UniProt Q02242); assay: PD-1 binding ELISA, murine B7-DC-Ig; details: FIG. 1B
# T2 construct: Fc (immunoglobulin Fc fusion partner); purchased R&D Systems
# Method: as §1, with “mouse” for “human”, “(Candor-Bioscience)” for “(Jackson ImmunoResearch)”, “90” for “90-120”
# T2 sequence (Q02242 with tags, fused parts or gaps limits assumed): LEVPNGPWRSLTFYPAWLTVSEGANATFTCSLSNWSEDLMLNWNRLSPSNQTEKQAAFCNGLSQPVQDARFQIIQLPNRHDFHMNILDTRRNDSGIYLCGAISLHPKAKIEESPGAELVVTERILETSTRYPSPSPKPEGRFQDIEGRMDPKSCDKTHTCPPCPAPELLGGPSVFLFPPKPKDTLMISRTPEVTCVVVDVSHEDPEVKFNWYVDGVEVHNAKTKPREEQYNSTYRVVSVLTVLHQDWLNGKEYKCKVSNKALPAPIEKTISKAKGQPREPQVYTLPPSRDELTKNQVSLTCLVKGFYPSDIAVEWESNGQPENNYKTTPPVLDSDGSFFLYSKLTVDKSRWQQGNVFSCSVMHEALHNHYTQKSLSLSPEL
# T1 sequence (Q15116 with tags, fused parts or gaps limits assumed): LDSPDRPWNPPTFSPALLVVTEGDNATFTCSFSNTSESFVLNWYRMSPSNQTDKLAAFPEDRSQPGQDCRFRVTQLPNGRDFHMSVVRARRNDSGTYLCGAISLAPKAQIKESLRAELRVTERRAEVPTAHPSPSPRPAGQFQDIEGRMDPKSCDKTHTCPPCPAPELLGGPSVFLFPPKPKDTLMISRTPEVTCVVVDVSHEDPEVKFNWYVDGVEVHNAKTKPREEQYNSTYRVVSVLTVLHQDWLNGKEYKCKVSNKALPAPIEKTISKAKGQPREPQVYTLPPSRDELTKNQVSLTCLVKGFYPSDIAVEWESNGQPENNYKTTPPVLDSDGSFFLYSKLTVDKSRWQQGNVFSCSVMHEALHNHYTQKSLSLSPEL
Molecule,binding to PD-1 in PD-1 binding ELISA (OD450) [3],further results
human B7-DC-Ig: human PD-L2 (B7-DC) fusion protein; representative sequence SEQ ID NO: 56/57,,binding to PD-1 in PD-1 binding ELISA (OD450) [1]: binding to PD-1
"O=P1(N(CCCl)CCCl)NCCCO1 (centres unmarked) [CTX, cyclophosphamide]",,outcome of tumor-bearing mice (death or euthanasia) [2]: died as a result of tumor growth or were euthanized
D111S: murine B7-DC-Ig with the D111S substitution (protein) LFTVTAPKEVYTVDVGSSVSLECDFDRRECTELEGIRASLQKVENDTSLQSERATLLEEQLPLGKALFHIPSVQVRDSGQYRCLVICGAAWSYKYLTVKVKASYMRIDTRILEVPGTGEVQLTCQARGYPLAEVSWQNVSVPANTSHIRTPEGLYQVTSVLRLKPQPSRNFSCMFWNAHMKELTSAIIDPLSRMEPKVPRTWEPRGPTIKPCPPCKCPAPNLLGGPSVFIFPPKIKDVLMISLSPIVTCVVVDVSEDDPDVQISWFVNNVEVHTAQTQTHREDYNSTLRVVSALPIQHQDWMSGKEFKCKVNNKDLPAPIERTISKPKGSVRAPQVYVLPPPEEEMTKKQVTLTCMVTDFMPEDIYVEWTNNGKTELNYKNTEPVLDSDGSYFMYSKLRVEKKNWVERNSYSCSVVHEGLHNHHTTKSFSRTPGK,reduced binding to PD-1,

# Continued, in another order:
binding to PD-1 in PD-1 binding ELISA (OD450) [3],Molecule,further results
reduced binding to PD-1,K113S: murine B7-DC-Ig with the K113S substitution (protein) LFTVTAPKEVYTVDVGSSVSLECDFDRRECTELEGIRASLQKVENDTSLQSERATLLEEQLPLGKALFHIPSVQVRDSGQYRCLVICGAAWDYSYLTVKVKASYMRIDTRILEVPGTGEVQLTCQARGYPLAEVSWQNVSVPANTSHIRTPEGLYQVTSVLRLKPQPSRNFSCMFWNAHMKELTSAIIDPLSRMEPKVPRTWEPRGPTIKPCPPCKCPAPNLLGGPSVFIFPPKIKDVLMISLSPIVTCVVVDVSEDDPDVQISWFVNNVEVHTAQTQTHREDYNSTLRVVSALPIQHQDWMSGKEFKCKVNNKDLPAPIERTISKPKGSVRAPQVYVLPPPEEEMTKKQVTLTCMVTDFMPEDIYVEWTNNGKTELNYKNTEPVLDSDGSYFMYSKLRVEKKNWVERNSYSCSVVHEGLHNHHTTKSFSRTPGK,
binding to PD-1,"wild type murine B7-DC-Ig: murine PD-L2 (B7-DC) fusion protein; representative sequence SEQ ID NO: 53/54 (protein, listed as Mus musculus) MLLLLPILNLSLQLHPVAALFTVTAPKEVYTVDVGSSVSLECDFDRRECTELEGIRASLQKVENDTSLQSERATLLEEQLPLGKALFHIPSVQVRDSGQYRCLVICGAAWDYKYLTVKVKASYMRIDTRILEVPGTGEVQLTCQARGYPLAEVSWQNVSVPANTSHIRTPEGLYQVTSVLRLKPQPSRNFSCMFWNAHMKELTSAIIDPLSRMEPKVPRTWEPRGPTIKPCPPCKCPAPNLLGGPSVFIFPPKIKDVLMISLSPIVTCVVVDVSEDDPDVQISWFVNNVEVHTAQTQTHREDYNSTLRVVSALPIQHQDWMSGKEFKCKVNNKDLPAPIERTISKPKGSVRAPQVYVLPPPEEEMTKKQVTLTCMVTDFMPEDIYVEWTNNGKTELNYKNTEPVLDSDGSYFMYSKLRVEKKNWVERNSYSCSVVHEGLHNHHTTKSFSRTPGK",
